Results as given in US20230250190A1 (published 2023).
Positions count from the first letter of the chain named.

T1: T4 (Tn-MUC1) (PAPGSTAPPAHGVT(α-GalNAc)SAPDTRPAPG-OH)
T1 peptide: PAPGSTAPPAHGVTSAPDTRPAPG

T2: T8 (Tn-MUC1) (PAPGST(α-GalNAc)APPAHGVTSAPDT(α-GalNAc)RPAPG-OH)
T2 peptide: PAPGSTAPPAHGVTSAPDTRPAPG

T3: T9 (Tn-MUC1) (PAPGSTAPPAHGVT(α-GalNAc)S(α-GalNAc)APDTRPAPG-OH)
T3 peptide: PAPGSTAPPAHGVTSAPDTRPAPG

T4: T11 (Tn-MUC1) (PAPGSTAPPAHGVT(α-GalNAc)SAPDT(α-GalNAc)RPAPG-OH)
T4 peptide: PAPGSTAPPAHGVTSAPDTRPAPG

B1: 202 (antibody, V domains shown)
VH: QVQLVQSGAEVKNPGASVKFSCKASGYTFINYYLQWLRQAPGQGLEWMGTINPFDGSTSYAQNFQGRVTMTRDTSSTTVYMELNSLKSEDTAVYYCARDSMIGYVLFDSWGQGTLVTVSS
B2: 70 (antibody, V domains shown)
VH: QVQLVQSGAEVKKPGASVKVSCKASGYAFPNYYIHWVRQAPGQGLEWMGVINPYGGSTNYAQKFQGRVTMTRGTSTSTVYLELSSLRSEDTAVYYCARDAMKGDSFFDYWGQGTLVTVSS
B3: 53 (antibody, V domains shown)
VH: QVQLVQSGAEVKKPGASMTVSCKTSGYTFISYYIHWLRQAPGQGLEWLGVINPFGGATNYAQKFQGRVTMTRDTSTITVYMELSSLRSEDTAVYYCARDAMGGDSHFDFWGQGTLVTVSS
B4: 118 (antibody, V domains shown)
VH: QVQLVQSGAEVKKPGASVKVSCKASGYTFTNYYIQWVRQAPGQGLEWMGVINPYDGSTNYAQRFQGKITLTRDTSTTTVYMELSSLGSEDTAVYYCARDYMIGYVVFDYWGQGTMVTVSS
B5: 110 (antibody, V domains shown)
VH: B4 VH with V11M, Q35H, R63K, K67R, I68V, G87R, Y109F, M115L
B6: 114 (antibody, V domains shown)
VH: B4 VH with V11M, K19T, K67R, I68V, S75T, Y80N, S85G, G87R, Y109F, M115L
B7: 66 (antibody, V domains shown)
VH: QVQLVQSGAEVKKPGASVRVSCKASGYTFTNYYIHWVRQAPGHGLTWMGVINPFDSSTDYAQKFQGRVTMTRDTSTSTVYMDLSSLRSEDTAVYYCARDYMRGHVVFDYWGQGTLVTVSS
B8: 94 (antibody, V domains shown)
VH: B7 VH with A16S, R19K, T30N, N31S, H43Q, S56G, H104Y, Q112R
B9: 49 (antibody, V domains shown)
VH: QVQLVESGAEVKKPGASVKVSCKASGYTFTRYYLHWVRQAPGQGLEWMGVINPYGGATNYAQKFQGRVTLTRDTSTSTVYMELNSLRSEDTAVYFCARDAMEGNSYFDHWGPGTLVTVSS
B10: 21 (antibody, V domains shown)
VH: QVQLVQSGAEVRKPGASVKFSCKASGYSFTHYYVHWVRQAPGQGLEWMGVINPFDSSTNYARKFQGRVTMTRDTSTTTVYMDLSSLRSEDTAVYFCARDAMEGDSYFDYWGQGTLVTVSS
B11: 134 (antibody, V domains shown)
VH: QVQLVQSGAEVKKPGASVEVSCKASGYTFINYYIHWVRQAPGQGLEWMGVINPFDGSTNYAQKFQGRVTVTRDTSTSTVFLDLSSLRPEDTAVYYCARDSMIGYVLFDYWGQGTLVTVSS
B12: 17 (antibody, V domains shown)
VH: QVQLVQSGAEVKKPGASVRVSCKASGYPFINYYIQWVRQAPGQGLEWMGVVNPYDGSTNYAQKFQGRVSITRDASTSTVFMELNSLRSEDTAVYYCARDSMLGHVIFDFWGQGTLVTVSS
B13: 154 (antibody, V domains shown)
VH: QVQLVQSGAEVKKSGASVKVSCKASGYIFTSYYIQWVRQAPGQGLEWMGVINPFDGSTDYAQKFQGRVTVTRDTSTTTVFMELSSLRSEDTAVYYCARDNMLGYVLFDYWGQGTLVTVSS
B14: 158 (antibody, V domains shown)
VH: B13 VH with S14P, I28T, I34M, Q35H, D59N, S75A, E82D
B15: 126 (antibody, V domains shown)
VH: QVQLVQSGAEVKKPGASVKVSCKASGYTFNRYYLHWVRQAPGQGLEWMGVINPYDGSTNYAQKFRGRVTMTRDTSTNTVYMELSSLRSEDTAVYFCARDAMEGDSYFDNWGQGTTVTVSS
B16: 122 (antibody, V domains shown)
VH: B15 VH with Q1E, V5L, Q6E, L34I, N59D, G66D, V68I, E82D, Q112R, T115L
B17: 166 (antibody, V domains shown)
VH: B15 VH with Q6E, L34I, Y54S, V68I, T78I, E102G, T115L
B18: 186 (antibody, V domains shown)
VH: B15 VH with L34I, V68I, E82D, F107L, Q112R, T115L
B19: 98 (antibody, V domains shown)
VH: QVQLVQSGAEVKKPGASVKVSCKASGYTFTSYYIQWLRQAPGQGLEWMGVINPTGGATNYAQKFQGRVTMTRETSTSMVHMELSSLRSEDTAVYYCARDYMRGYVVFDYWGQGTLVTVSS
B20: 182 (antibody, V domains shown)
VH: QVQLVQSGAEVKKPGASVKVSCKASGYSFTYSYIQWVRLAPGRGLEWMGVINPYDGSTDYAQKFQGRVTLTRDTSTTTVYMELSSLTSEDTAVYYCARDFMIGYVVFDYWGQGTLVTVSS

Columns and labels:
Assay in all cases: glycopeptide array
T4 (Tn-MUC1) = molecular target: T1, T4 (Tn-MUC1)
T8 (Tn-MUC1) = molecular target: T2, T8 (Tn-MUC1)
T9 (Tn-MUC1) = molecular target: T3, T9 (Tn-MUC1)
T11 (Tn-MUC1) = molecular target: T4, T11 (Tn-MUC1)

| Binder | EC50 (T4 (Tn-MUC1)) | EC50 (T8 (Tn-MUC1)) | EC50 (T9 (Tn-MUC1)) | EC50 (T11 (Tn-MUC1)) |
| --- | --- | --- | --- | --- |
| B1 | 0.104 µg/mL | 0.125 µg/mL | 0.119 µg/mL | 0.142 µg/mL |
| B2 | 0.127 µg/mL | 0.149 µg/mL | 0.151 µg/mL | 0.161 µg/mL |
| B3 | 0.112 µg/mL | 0.122 µg/mL | 0.126 µg/mL | 0.131 µg/mL |
| B4 | 0.097 µg/mL | 0.142 µg/mL | 0.102 µg/mL | 0.143 µg/mL |
| B5 | 0.127 µg/mL | 0.153 µg/mL | 0.139 µg/mL | 0.164 µg/mL |
| B6 | 0.087 µg/mL | 0.085 µg/mL | 0.076 µg/mL | 0.09 µg/mL |
| B7 | 0.11 µg/mL | 0.123 µg/mL | 0.123 µg/mL | 0.138 µg/mL |
| B8 | 0.034 µg/mL | 0.033 µg/mL | 0.033 µg/mL | 0.04 µg/mL |
| B9 | 0.102 µg/mL | 0.124 µg/mL | 0.12 µg/mL | 0.132 µg/mL |
| B10 | 0.051 µg/mL | 0.061 µg/mL | 0.058 µg/mL | 0.071 µg/mL |
| B11 | 0.11 µg/mL | 0.113 µg/mL | 0.095 µg/mL | 0.131 µg/mL |
| B12 | 0.098 µg/mL | 0.104 µg/mL | 0.102 µg/mL | 0.126 µg/mL |
| B13 | 0.13 µg/mL | 0.162 µg/mL | 0.106 µg/mL | 0.196 µg/mL |
| B14 | 0.095 µg/mL | 0.242 µg/mL | 0.088 µg/mL | 0.235 µg/mL |
| B15 | 0.143 µg/mL | 0.168 µg/mL | 0.153 µg/mL | 0.195 µg/mL |
| B16 | 0.108 µg/mL | 0.121 µg/mL | 0.1 µg/mL | 0.133 µg/mL |
| B17 | 0.108 µg/mL | 1.85 µg/mL | 0.095 µg/mL | 1.68 µg/mL |
| B18 | 0.118 µg/mL | 0.203 µg/mL | 0.132 µg/mL | 0.213 µg/mL |
| B19 | 0.116 µg/mL | 0.263 µg/mL | 0.102 µg/mL | 0.395 µg/mL |
| B20 | 0.093 µg/mL | 0.098 µg/mL | 0.085 µg/mL | 0.11 µg/mL |
